Drawing on patent CN113929781A (MABWELL SHANGHAI BIOTECHNOLOGY CO LTD; JIANGSU MAIWEIKANG …, dated 2022), this text covers IC50 for one molecule.

Test [1] deals with T1, 人PD-1-hFc (human, UniProt Q15116 21-167).
T1 construct: range 21-167; also called 重组人PD-1; Lot 20180329; not shown: human Fc (hFc)
Put plainly: competition ELISA, PD-1-hFc coated, competitor PD-L1-mFc at 1 μg/mL.

The target in test [2] is T1, 人PD-1-hFc. The test is described as follows: competition ELISA, PD-1-hFc coated, competitor PD-L2-hFc-Biotin at 2 μg/mL.

T1 sequence (Q15116 21-167 limits assumed, form in doubt): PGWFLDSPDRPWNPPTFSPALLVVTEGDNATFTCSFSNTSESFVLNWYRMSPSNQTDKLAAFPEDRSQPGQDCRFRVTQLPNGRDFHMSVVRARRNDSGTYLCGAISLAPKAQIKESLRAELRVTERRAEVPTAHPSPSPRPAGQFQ

B1: h317 (antibody, V domains shown)
VH: EVQLVESGGGLVKPGGSLRLSCAASGFTFSSYDMSWVRQAPGKGLEWVATISGGGSYTYYPDSVKGRFTISRDNAKNSLYLQMNSLRAEDTAVYYCASPDSSGVAYWGQGTLVTVSS
VL: DIVMTQSPLSLPVTPGEPASITCKASQDVETVVAWYLQKPGQSPRLLIYWASTRHTGVPDRFSGSGSGTDFTLKISRVEAEDVGVYYCQQYSRYPWTFGQGTKL
For B1, the values for the IC50 with 人PD-1-hFc [1] and with 人PD-1-hFc [2] were 1.4 nM and 1.2 nM, respectively.
